Results on 25 molecules are retold here after patent US20060241051A1 (Takeda / Millennium, published 2006).

Numbered stars: 1 amine (or outer) side, 2 acyl side, 3 side chain; on linkers, the order of the positions; unused ones are H or OH. Square brackets hold non-standard residues; d marks the D form. Primed or numbered codes have the meaning given here. Ends that are not written are not given here. Trp(For)″ = Trp(CHO), O=Cn1cc(C[C@H](N[*:1])C(=O)[*:2])c2ccccc21; Arg(Me) = CNC(=N)NCCC[C@H](N)C(=O)O; azaGly = NNC(=O)O

The IC50 is the concentration needed to halve the response being measured.

The assay deals with T1, human OT7T175 (metastin receptor) (human, UniProt Q969F8 1-398).
T1 construct: expressed on CHO cells (hOT7T175-expressed CHO cells; hOT7T175/CHO); also called hOT7T175; h0T7T175
T1 sequence (Q969F8 whole entry L364H): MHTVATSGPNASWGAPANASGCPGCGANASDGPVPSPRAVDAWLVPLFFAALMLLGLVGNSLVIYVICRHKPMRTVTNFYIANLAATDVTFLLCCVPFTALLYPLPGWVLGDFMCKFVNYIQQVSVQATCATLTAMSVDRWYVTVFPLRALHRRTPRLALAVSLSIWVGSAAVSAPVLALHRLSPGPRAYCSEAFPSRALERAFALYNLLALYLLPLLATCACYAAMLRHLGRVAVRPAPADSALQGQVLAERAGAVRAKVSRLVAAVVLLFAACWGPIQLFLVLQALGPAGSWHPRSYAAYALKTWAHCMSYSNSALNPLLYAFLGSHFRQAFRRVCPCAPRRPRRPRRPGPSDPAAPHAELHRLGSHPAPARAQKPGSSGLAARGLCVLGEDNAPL
As to the kind of experiment: FMAT competition with Cy-5-labeled metastin (40-54), hOT7T175-expressed CHO cells. The procedure: h0T7T175-Expressed CHO cells were cultured in MEM-α medium (nucleic acid-free) containing 10% dialyzed serum. The medium was removed and the adherent cells were washed with PBS. Then, PBS containing 5 mM EDTA was added and the cells were scraped from a flask with a cell scraper. […] To each well of a 96-Well Black Clear Bottom Plate (Applied Biosystems, Inc.), 10 μL of assay buffer containing 1% dimethylsulfoxide was added to examine total binding, 10 μL of 10 μM non-labeled peptide (having the same amino acid sequence as that of the labeled one) solution diluted with assay buffer to examine non-specific binding, and 10 μL of a test compound diluted with assay buffer to examine the binding inhibition activity of the test compound, respectively. Furthermore, 90 μL each of the cell suspension was dispensed to each well. […] The specific binding is a value obtained by subtracting the non-specific binding from the total binding.
In turn, YNWNYFGLRF-NH2 [Compound No. 23: [Tyr5]MS10] yielded an IC50 of 400 nM.
Turning to LNWNSFGLRF-NH2 [Compound No. 73: [Leu1]MS10], the IC50 was determined as 220 nM. Compared with the last molecule, the IC50 is about 1.8-fold lower.
Molecule YNLNSFGLRF-NH2 [Compound No. 68: [Leu3]MS10] displayed a half-inhibitory concentration (IC50) of 7.7 nM.
The molecule YNSNSFGLRF-NH2 [Compound No. 69: [Ser3]MS10] displayed an IC50 of 83 nM.
With [dY]N[dA]NSF[azaGly]L[Arg(Me)]F-NH2 [Compound No. 252: [D-Tyr1,D-Ala3,AzaGly7,Arg(Me)9]MS10], the IC50 worked out at 580 nM.
Turning to YNWNSFGLR[Trp(For)″]-NH2 (also called [Trp(CHO)10]MS10) [Compound No. 186: [Trp(For)10]MS10], the IC50 came out at 460 nM.
The value for YNWNSFGLKF-NH2 [Compound No. 44: [Lys9]MS10] was 190 nM; that for [dY]NSNSF[azaGly]L[Arg(Me)]F-NH2 [Compound No. 191: [D-Tyr1,Ser3,AzaGly7,Arg(Me)9]MS10] was 300 nM; that for [dY]NTNSF[azaGly]L[Arg(Me)]F-NH2 [Compound No. 221: [D-Tyr1,Thr3,AzaGly7,Arg(Me)9]MS10] was 95 nM.
The molecule YNWNSFGVRF-NH2 [Compound No. 107: [Val8]MS10] came in with an IC50 of 120 nM.
In the case of YYWNSFGLRF-NH2 [Compound No. 58: [Tyr2]MS10], the IC50 came to 16 nM. Compared with the last molecule, the IC50 is about 7.5-fold lower.
In the case of YNDNSFGLRF-NH2 [Compound No. 70: [Asp3]MS10], the IC50 was 200 nM.
[dY]NPNSF[azaGly]L[Arg(Me)]F-NH2 [Compound No. 253: [D-Tyr1,Pro3,AzaGly7,Arg(Me)9]MS10] showed an IC50 of 27 nM. Compared with the last molecule, the IC50 is about 7.4-fold lower.
ANWNSFGLRF-NH2 [Compound No. 72: [Ala1]MS10] came in with an IC50 of 540 nM.
YDWNSFGLRF-NH2 [Compound No. 57: [Asp2]MS10] registered an IC50 of 100 nM.
Regarding YNWNSYGLRF-NH2 [Compound No. 150: [Tyr6]MS10], the IC50 was determined as 320 nM.
The molecule YNANSFGLRF-NH2 [Compound No. 67: [Ala3]MS10] returned an IC50 of 27 nM. This IC50 is about 12-fold lower than that of the molecule before.
Turning to YLWNSFGLRF-NH2 [Compound No. 59: [Leu2]MS10], the IC50 was 340 nM.
Turning to YNKNSFGLRF-NH2 [Compound No. 71: [Lys3]MS10], the half-inhibitory concentration (IC50) amounted to 66 nM.
In turn, NWNSFGLRF-NH2 (also called human metastin 9 (46-54)) [Compound No. 4: des(1)-MS10] returned a 50% inhibitory concentration (IC50) of 260 nM. Compared with the last molecule, the IC50 is about 3.9-fold higher.
For the molecule [dY]SNSF[azaGly]L[Arg(Me)]F-NH2 [Compound No. 239: des(1)-[D-Tyr2,Ser3,AzaGly7,Arg(Me)9]MS10], the IC50 was found to be 120 nM.
With [dY]SNSFGL[Arg(Me)]F-NH2 [Compound No. 226: des(1)-[D-Tyr2,Ser3,Arg(Me)9]MS10], the IC50 amounted to 100 nM.
Take [dY]TNSFGL[Arg(Me)]F-NH2 [Compound No. 227: des(1)-[D-Tyr2,Thr3,Arg(Me)9]MS10]: the half-inhibitory concentration (IC50) was determined as 48 nM. Compared with the last molecule, the IC50 is about 2.1-fold lower.
[dY]INSF[azaGly]L[Arg(Me)]F-NH2 [Compound No. 240: des(1)-[D-Tyr2,Ile3,AzaGly7,Arg(Me)9]MS10] returned a half-maximal inhibitory concentration (IC50) of 17 nM. Against the preceding molecule, the IC50 is about 2.8-fold lower.
For the molecule [dN][dW]NSFGL[Arg(Me)]F-NH2 [Compound No. 225: des(1)-[D-Asn2,D-Trp3,Arg(Me)9]MS10], the IC50 came to 410 nM. This IC50 is about 24-fold higher than that of the molecule before.
